Data reported in patent US20240360208A1 (Hoffmann-La Roche, published 2024).

Key:
[1] = target: T1, human CCL2 (MCP1) - wild type (wt) (human, UniProt P13500 24-99); test: cell-based or functional assay
[2] = target: T2, human FcγRIIb receptor on CHO-K1 cells (clone 223) (human, UniProt P31994 43-310); test: cell-based or functional assay
T2 sequence (looked up): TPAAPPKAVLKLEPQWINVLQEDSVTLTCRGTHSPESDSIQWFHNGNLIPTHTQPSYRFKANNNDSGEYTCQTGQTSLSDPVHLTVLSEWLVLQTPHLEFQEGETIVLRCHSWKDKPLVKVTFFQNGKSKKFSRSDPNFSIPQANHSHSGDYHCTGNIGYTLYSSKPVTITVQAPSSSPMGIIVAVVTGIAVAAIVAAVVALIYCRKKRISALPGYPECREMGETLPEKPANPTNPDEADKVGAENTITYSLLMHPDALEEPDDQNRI

[3] = target: T2, human FcγRIIb receptor on CHO-K1 cells …; test: cell-based or functional assay; remark: listed apart in the source
[4] = target: T3, human FcγRIIa on CHO-K1 cells (clone 138) (human, UniProt P12318 34-317); test: cell-based or functional assay
T3 sequence (looked up): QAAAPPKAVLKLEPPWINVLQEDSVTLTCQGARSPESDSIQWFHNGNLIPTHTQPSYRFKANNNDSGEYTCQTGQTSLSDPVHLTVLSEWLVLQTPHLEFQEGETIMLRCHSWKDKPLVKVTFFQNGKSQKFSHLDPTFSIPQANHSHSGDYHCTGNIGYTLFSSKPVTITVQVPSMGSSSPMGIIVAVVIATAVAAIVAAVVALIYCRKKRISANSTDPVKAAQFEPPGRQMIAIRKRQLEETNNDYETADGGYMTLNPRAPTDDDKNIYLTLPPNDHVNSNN

[5] = target: T1, human CCL2 (MCP1) - wild type (wt); test: cell-based or functional assay; remark: listed apart in the source
[6] = target: T1, human CCL2 (MCP1) - wild type (wt); test: SPR T200, 37 C, antibody captured, 1:1 model
Experimental: (§1) Antibody clone supernatants were diluted 1:2 in system buffer and were captured for 1 min at 5 μl/min. […] Analyte kinetics were performed at 30 μl/min. As analyte in solution wt human CCL2 or monomeric CCL2 P8A variant CCL2 were used. Analytes were injected at 90 nM highest concentration. The analyte contact time was 3 min and the dissociation time was 10 min. The Biaevaluation software V.3.0 was used according to the instructions of the manufacturer GEHC. A 1:1 binding model with RMAX local was applied to apparently estimate kinetic rates.

[7] = target: T4, human CCL2 (MCP1) - P8A variant (human, UniProt P13500 24-99); test: SPR T200, 37 C, antibody captured, 1:1 model
T4 construct: In-house point mutant that cannot dimerise; also called monomeric human CCL2; monomeric CCL2
Experimental: as §1

[8] = target: T1, human CCL2 (MCP1) - wild type (wt); test: SPR T200, 25 C, anti-human Fc capture, 1:1 model, pH 5.5
Experimental: (§2) An antibody capture system was established. 13000 MAb<h-Fc-pan>M-R10Z8E9-IgG (Roche) were immobilized at 25° C. at 18 μg/ml in 10 mM sodium acetate buffer pH 5.0, by EDC/NHS coupling as described by the manufacturer. The capture system was regenerated by an injection at 20 μl/min with HBS buffer (100 mM HEPES pH 7.4, 1.5 M NaCl, 0.05% (w/v) Tween 20), followed by a 1 min 15 see injection with 10 mM NaOH and two 10 mM glycine buffer pH 2.5 injections for 1 min. Antibodies were captured were injected for 30 see at 10 μl/min at 80 nM concentration diluted in the respective system buffer. […] The analyte contact time was 3 min and the dissociation time was 10 min. Analyte kinetics were performed at 50 μl/min.
(§3) The Biaevaluation software V.3.0 was used according to the instructions of the manufacturer GEHC. A 1:1 binding model with RMAX local was applied to determine kinetic rates.

[9] = target: T1, human CCL2 (MCP1) - wild type (wt); test: SPR T200, 25 C, anti-human Fc capture, 1:1 model, pH 5.9
Experimental: as §2, §3

[10] = target: T1, human CCL2 (MCP1) - wild type (wt); test: SPR T200, 25 C, anti-human Fc capture, 1:1 model, pH 6.3
[11] = target: T1, human CCL2 (MCP1) - wild type (wt); test: SPR T200, 25 C, anti-human Fc capture, 1:1 model, pH 6.7
[12] = target: T1, human CCL2 (MCP1) - wild type (wt); test: SPR T200, 25 C, anti-human Fc capture, 1:1 model, pH 7.1
Experimental: as §2, §3

[13] = target: T1, human CCL2 (MCP1) - wild type (wt); test: SPR T200, 25 C, anti-human Fc capture, 1:1 model, pH 7.4
Experimental: as §2, §3

[14] = target: T1, human CCL2 (MCP1) - wild type (wt); test: SPR T200, 25 C, anti-human Fc capture, 1:1 model, pH 7.9
Experimental: as §2, §3

[15] = target: T1, human CCL2 (MCP1) - wild type (wt); test: SPR T200, 25 C, anti-human Fc capture, 1:1 model, pH 8.3
Experimental: as §2, §3

[16] = target: T1, human CCL2 (MCP1) - wild type (wt); test: SPR, C1 chip, anti-human Fc capture, 25 C, pH 7.4, Langmuir 1:1
Experimental: The sample and system buffer was PBS-T (10 mM phosphate buffered saline including 0.05% Tween20) pH 7.4. The flow cell was set to 25° C.—and the sample block set to 12° C.—and primed with running buffer twice. The bispecific antibody was captured by injecting a 2 μg/ml solution for 60 see at a flow rate of 10 μl/min. Association was measured by injection of human CCL2 (wt) in various concentrations in solution for 150 see at a flow rate of 30 μl/min starting with 30 nM in 1:10 dilutions. The dissociation phase was monitored for up to 1200 sec and triggered by switching from the sample solution to running buffer. […] Bulk refractive index differences were corrected by subtracting the response obtained from a goat anti human IgG Fc surface. Blank injections are also subtracted (=double referencing). For calculation of kinetic parameters, the Langmuir 1:1 model was used.

[17] = target: T4, human CCL2 (MCP1) - P8A variant; test: SPR (Biacore T200), 37 °C, ACES pH 7.4; antibody captured on anti-human Fc, monomeric human CCL2 at 8 nM; response normalised to capture level
Experimental: Anti-human Fc (GE Healthcare) was immobilized on each flow cells of a CM4 sensor chip using amine coupling kit (GE Healthcare) according to the recommended settings by the manufacturer. Antibodies and analytes were diluted into ACES pH 7.4 or pH 5.8 buffer (20 mM ACES, 150 mM NaCl, 1 mg/ml BSA, 0.05% Tween 20, 0.005% NaN3). […] Sensor surface was regenerated each cycle with 3M MgCl2.

B1: CKLO2-GG03/GG04 (=P1AF8140) (bispecific antibody)
heavy 1: DIQMTQSPSSLSASVGDRVTITCKAFEDIYNRRAWYQQKPGKAPKLLIHGATSLEHGVPSRFSGSGSGTDYTLTISSLQPEDFATYYCQQFWSAPYTFGGGTKVEIKSSASTKGPSVFPLAPSSKSTSGGTAALGCLVKDYFPEPVTVSWNSGALTSGVHTFPAVLQSSGLYSLSSVVTVPSSSLGTQTYICNVNHKPSNTKVDKKVEPKSCDKTHTCPPCPAPEYLGGDSVFLFPPKPKDVLMISRTPEVTCVVIDVSHEDPEVKFNWYVDGVEVHNAKTKPREEQYNSTYRVVSVLPVLHRDWLNGKEYKCKVSNKALPKPIEKTISKAKGQRREPQVYTLPPCREEMTKNQVSLWCLVKGFYPSDIAVEWESNGQPENNYKTTPPVLDSDGSFFLYSKLTVDKSRWQQGNVFSCSVMHEALHAHYTRKELSLSP
heavy 2: not shown
light 1: QVQLVQSGAEVKKPGSSVKVSCKASGLTISHTYMHWVRQAPGQGLEWMGRIDPDNHNTKFDPKFQGRVTITADTSTSTAYMELSSLRSEDTAVYYCARGVFGFFEHWGQGTTVTVSSASVAAPSVFIFPPSDEQLKSGTASVVCLLNNFYPREAKVQWKVDNALQSGNSQESVTEQDSKDSTYSLSSTLTLSKADYEKHKVYACEVTHQGLSSPVTKSFNRGEC
light 2: EIVLTQSPATLSLSPGERATLSCRASQHVSDAYLAWYQQKPGQAPRLLIYDASDRAEGVPARFSGSGSGTDFTLTISSLEPEDFAVYYCHQYIHLHSFTFGQGTKVEIKRTVAAPSVFIFPPSDRKLKSGTASVVCLLNNFYPREAKVQWKVDNALQSGNSQESVTEQDSKDSTYSLSSTLTLSKADYEKHKVYACEVTHQGLSSPVTKSFNRGEC
- IC50, inhibition of THP-1 migration (chemotaxis assay) [1]: 0.3 µg/mL
- EC50 (read off the curve) of the depletion of CCL2 from the supernatant of FcγRIIb CHO cells [2]: ~1 nM

B2: P1AF8142 (CKLO2-CB-SG1095) (bispecific antibody)
chain 1: not shown
chain 2: QVQLVQSGAEVKKPGSSVKVSCKASGLTISHTYMHWVRQAPGQGLEWMGRIDPDNHNTKFDPKFQGRVTITADTSTSTAYMELSSLRSEDTAVYYCARGVFGFFEHWGQGTTVTVSSASTKGPSVFPLAPSSKSTSGGTAALGCLVKDYFPEPVTVSWNSGALTSGVHTFPAVLQSSGLYSLSSVVTVPSSSLGTQTYICNVNHKPSNTKVDKKVEPKSCGGSGGGGSGGDKTHTCPPCPAPELWNGPSVFLFPPKPKDTLMISRTPEVTCVVVDVSDEDPEVKFNWYVDGVEVHNAKTKPREELYNSTYRVVSVLTVLHRDWLNGKEYKCKVSNTALPKPIEKTISKAKGQRREPQVYTLPPCRDELTKNQVSLWCLVKGFYPSDIAVEWESNGQPENNYKTTPPVLDSDGSFFLYSKLTVDKSRWQQGNVFSCSVMHEALHAHYTRKELSLSPGKGGSGGGGSGGDIQMTQSPSSLSASVGDRVTITCKAFEDIYNRRAWYQQKPGKAPKLLIHGATSLEHGVPSRFSGSGSGTDYTLTISSLQPEDFATYYCQQFWSAPYTFGGGTKVEIKRTVAAPSVFIFPPSDEQLKSGTASVVCLLNNFYPREAKVQWKVDNALQSGNSQESVTEQDSKDSTYSLSSTLTLSKADYEKHKVYACEVTHQGLSSPVTKSFNRGEC
- IC50, inhibition of THP-1 migration (chemotaxis assay) [1]: 0.2 µg/mL
- Depletion level max (%) of CCL2 from the supernatant [3]: 80%
- EC50 [nM] of CCL2 depletion [3]: 0.13 nM
- EC90 [nM] of CCL2 depletion [3]: 0.5 nM
- EC50 (read off the curve) of the depletion of CCL2 from the supernatant of FcγRIIa CHO cells [4]: ~0.1 nM

B3: ABN912 (antibody, IgG1, V domains shown)
VH: EVQLVQSGGGLVQPGGSLRLSCAASGFTFSHYWMSWVRQAPGKGLEWLANIEQDGSEKYYVDSVKGRFTISRDNAKNSLYLQMNSLRAEDTAVYFCARDLEGLHGDGYFDLWGRGTLVTVSS
VL: AIQLTQSPSSLSASVGDRVILTCRASQGVSSALAWYQQKPGKAPKLLIYDASSLESGVPSRFSGSGSGPDFTLTISSLQPEDFATYFCQQFNSYPLTFGGGTKVEIK
notes: IgG1 with kappa light chain; also called AB912; CCL2-0003
- THP1 chemotaxis [fold change compared to IgG control] [5]: 6.5 fold
- Kd [6]: 0.036 nM
- T1/2 [6]: 33 min
- Kd [7]: 0.046 nM
- T1/2 [7]: 25 min
- Kd [8]: 2000 nM
- t 1/2-diss. [8]: 0.03 min
- Kd [9]: 13 nM
- t 1/2-diss. [9]: 1 min
- Kd [10]: 1 nM
- t 1/2-diss. [10]: 3 min
- Kd [11]: 0.2 nM
- t 1/2-diss. [11]: 8 min
- Kd [12]: 0.02 nM
- t 1/2-diss. [12]: 20 min
- Kd [13]: 0.01 nM
- t 1/2-diss. [13]: 33 min
- Kd [14]: 0.004 nM
- t 1/2-diss. [14]: 25 min
- Kd [15]: 0.004 nM
- t 1/2-diss. [15]: 35 min
- t 1/2* [16]: 27 min

B4: CKLO04 (IgG1 wild type) (bispecific antibody, V domains shown)
VH 1: QVQLVQSGAEVKKPGSSVKVSCKASGLTISHTYMHWVRQAPGQGLEWMGRIDPDNHNTKFDPKFQGRVTITADTSTSTAYMELSSLRSEDTAVYYCARGVFGFFDHWGQGTTVTVSS
VL 1: DIQMTQSPSSLSASVGDRVTITCKATEDIYNRLAWYQQKPGKAPKLLIHGATSLEHGVPSRFSGSGSGTDYTLTISSLQPEDFATYYCQQFRSAPYTFGGGTKVEIK
VH 2: QVQLVQSGAEVKKPGSSVKVSCKASGGTFSHYGISWVRQAPGQGLEWMGGIIHIFHTANYAQKFQGRVTITADESTSTAYMELSSLRSEDTAVYYCARYDAHYGELDFWGQGTLVTVSS
VL 2: EIVLTQSPATLSLSPGERATLSCRASQHVSDAYLAWYQQKPGQAPRLLIYDASDRAEGVPARFSGSGSGTDFTLTISSLEPEDFAVYYCHQYIHLHSFTFGQGTKVEIK
notes: CrossMab, IgG1 wild type with knobs-into-holes; also called CKLO4; 11K2H1503/11K2L1201//CNTO888H0625/CNTO888L0616
- binding result [17]: binds
